Target: T1, HLA-B*08:01 (human)
T1 construct: MHC monomer first loaded with a UV-sensitive peptide that is cleaved by UV light and exchanged for the test peptide
Assay: UV peptide exchange ELISA
Excerpt: Candidate peptides for T cell based therapies according to the present invention were further tested for their MHC binding capacity (affinity). The individual peptide-MHC complexes were produced by UV-ligand exchange, where a UV-sensitive peptide is cleaved upon UV-irradiation and exchanged with the peptide of interest as analyzed. Only peptide candidates that can effectively bind and stabilize the peptide-receptive MHC molecules prevent dissociation of the MHC complexes. To determine the yield of the exchange reaction, an ELISA was performed based on the detection of the light chain (β2m) of stabilized MHC complexes. The assay was performed as generally described in Rodenko et al. (Rodenko et al., 2006).
96 well MAXISorp plates (NUNC) were coated over night with 2 ug/ml streptavidin in PBS at room temperature, washed 4× and blocked for 1 h at 37° C. in 2% BSA containing blocking buffer. Refolded HLA-A*02:01/MLA-001 monomers served as standards, covering the range of 15-500 ng/ml. Peptide-MHC monomers of the UV-exchange reaction were diluted 100-fold in blocking buffer. Samples were incubated for 1 h at 37° C., washed four times, incubated with 2 ug/ml HRP conjugated anti-β2m for 1 h at 37° C., washed again and detected with TMB solution that is stopped with […]. Absorption was measured at 450 nm. Candidate peptides that show a high exchange yield (preferably higher than 50%, most preferred higher than 75%) are generally preferred for a generation and production of antibodies or fragments thereof, and/or T cell receptors or fragments thereof, as they show sufficient avidity to the MHC molecules and prevent dissociation of the MHC complexes.

Binder: LPLDSRYVTL [LPLDSRYVTL (SEQ ID NO: 237)]
- peptide exchange yield: 50 to 75%

Binder: DIKKTNESL [DIKKTNESL (SEQ ID NO: 23)]
- peptide exchange yield: 20 to 50%

Binder: KLYIHRVTL [KLYIHRVTL (SEQ ID NO: 232)]
- peptide exchange yield: 20 to 50%

Binder: DVYFHHVL [DVYFHHVL (SEQ ID NO: 230)]
- peptide exchange yield: 20 to 50%

Binder: EARPPSPAV [EARPPSPAV (SEQ ID NO: 216)]
- peptide exchange yield: 20 to 50%

Binder: ETIKGHSVRL [ETIKGHSVRL (SEQ ID NO: 217)]
- peptide exchange yield: 20 to 50%

Binder: DVSARKLRV [DVSARKLRV (SEQ ID NO: 223)]
- peptide exchange yield: 20 to 50%

Binder: DIYEVAVSL [DIYEVAVSL (SEQ ID NO: 226)]
- peptide exchange yield: 50 to 75%

Binder: VRNPKILIL [VRNPKILIL (SEQ ID NO: 219)]
- peptide exchange yield: 20 to 50%

Binder: TLRAYVLAL [TLRAYVLAL (SEQ ID NO: 228)]
- peptide exchange yield: 50 to 75%

Binder: DTHTNTYYL [DTHTNTYYL (SEQ ID NO: 229)]
- peptide exchange yield: 20 to 50%

Binder: VFRVGISF [VFRVGISF (SEQ ID NO: 234)]
- peptide exchange yield: 20 to 50%

Binder: DAPRHRLL [DAPRHRLL (SEQ ID NO: 214)]
- peptide exchange yield: 20 to 50%

Binder: NPLIEIISI [NPLIEIISI (SEQ ID NO: 215)]
- peptide exchange yield: 20 to 50%

Binder: FPSLFINQF [FPSLFINQF (SEQ ID NO: 213)]
- peptide exchange yield: 20 to 50%

Binder: SLKEELLSL [SLKEELLSL (SEQ ID NO: 221)]
- peptide exchange yield: 50 to 75%

Binder: EVRLKPIL [EVRLKPIL (SEQ ID NO: 22)]
- peptide exchange yield: 20 to 50%

Binder: LPYPPQKVV [LPYPPQKVV (SEQ ID NO: 224)]
- peptide exchange yield: 20 to 50%

Binder: DVISKGVSL [DVISKGVSL (SEQ ID NO: 211)]
- peptide exchange yield: 20 to 50%

Binder: SRFPGMSVL [SRFPGMSVL (SEQ ID NO: 227)]
- peptide exchange yield: 20 to 50%

Binder: GEKLLRPSL [GEKLLRPSL (SEQ ID NO: 231)]
- peptide exchange yield: 20 to 50%

Binder: DVKLVFVM [DVKLVFVM (SEQ ID NO: 233)]
- peptide exchange yield: 20 to 50%

Binder: RILKRFLAC [RILKRFLAC (SEQ ID NO: 21)]
- peptide exchange yield: 50 to 75%

Binder: MPKRAHWGA [MPKRAHWGA (SEQ ID NO: 225)]
- peptide exchange yield: 50 to 75%

Binder: DNHPRLVTL [DNHPRLVTL (SEQ ID NO: 218)]
- peptide exchange yield: 50 to 75%

Binder: EEYKFPSL [EEYKFPSL (SEQ ID NO: 212)]
- peptide exchange yield: 20 to 50%

Binder: STLKKSLEI [STLKKSLEI (SEQ ID NO: 236)]
- peptide exchange yield: 20 to 50%

Binder: AQKAELIAL [AQKAELIAL (SEQ ID NO: 222)]
- peptide exchange yield: 20 to 50%

Binder: LAVRHLSL [LAVRHLSL (SEQ ID NO: 220)]
- peptide exchange yield: 20 to 50%

Binder: SPNSLVTIL [SPNSLVTIL (SEQ ID NO: 235)]
- peptide exchange yield: 50 to 75%
